Experimental findings from article PMC4492089, “FOXM1 binds directly to non-consensus sequences in the human genome” are described below.

Numbering of substitutions follows the chain as printed.

What all share (conditions): protein: recombinant; tags: GST; label: 5' 6FAM on top strand; blunt
In data set [1] the target is T1, FOXM1B DBD WT (GST fusion) (UniProt Q08050-2 235-327).
T1 sequence: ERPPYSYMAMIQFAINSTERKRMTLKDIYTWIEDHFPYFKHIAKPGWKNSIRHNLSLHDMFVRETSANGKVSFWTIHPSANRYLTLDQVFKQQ
Description: fluorescence polarization; FP: 50 mM Tris-HCl pH 7.5, 5 mM MgCl2, 1 mM DTT, 2% glycerol; protein 80 nM-5 uM; temperature not stated. Background: Polarisation of emitted light reports the rotation of a fluorescent probe.

A further data set concerns the target T2, FOXM1 DBD R286A (UniProt Q08050 235-327, R286A).
T2 sequence: T1 sequence with R52A, Q92P, Q93L
Description: fluorescence polarization; up to 5 uM protein; FP: 50 mM Tris-HCl pH 7.5, 5 mM MgCl2, 1 mM DTT, 2% glycerol; protein 80 nM-5 uM; temperature not stated.

The target in a further data set is T3, FOXM1 DBD S290A (UniProt Q08050 235-327, S290A).
T3 sequence: T1 sequence with S56A, Q92P, Q93L
The description is as above.

The next data set concerns the target T4, FOXM1 DBD H287A (UniProt Q08050 235-327, H287A).
T4 sequence: T1 sequence with H53A, Q92P, Q93L
The experiment in a line: fluorescence polarization; FP: 50 mM Tris-HCl pH 7.5, 5 mM MgCl2, 1 mM DTT, 2% glycerol; protein 80 nM-5 uM; temperature not stated.

Data set [2] deals with T5, FOXM1 DBD WT (GST fusion) (UniProt Q08050 235-327).
T5 sequence: T1 sequence with Q92P, Q93L
Described as above.

For data set [3], the target named is T1, FOXM1B DBD WT (GST fusion). Description: EMSA; FP: 50 mM Tris-HCl pH 7.5, 5 mM MgCl2, 1 mM DTT, 2% glycerol; protein 80 nM-5 uM; temperature not stated. (In general: A gel shift assay detects complexes by their altered migration in electrophoresis.)

B1: MYC P2 TATA box 16-mer (dsDNA)
DNA 1: TGAGTATAAAAGCCGG
DNA 2: CCGGCTTTTATACTCA
By Kd is commonly meant the equilibrium constant for the complex coming apart. As to B1, the Kd in data set [1] was 177 ± 79 nM.

B2: CCNB2 16-mer (dsDNA)
DNA 1: ACGCGGTATTTGAATC
DNA 2: GATTCAAATACCGCGT
Consider B2, for which the Kd in data set [1] is 436 ± 147 nM.

B3: FKH consensus 16-mer (dsDNA)
DNA 1: AAACAAACAAACAATC
DNA 2: GATTGTTTGTTTGTTT
As to B3, the binding result in the data set with FOXM1 DBD R286A and with FOXM1 DBD S290A was “no binding” throughout. For the same molecule, the Kd in the data set with FOXM1 DBD H287A came to 3040 ± 100 nM; in data set [2] it was 1100 ± 20 nM; in data set [1], 224 ± 45 nM; in data set [3] it was 346 ± 24 nM.

B4: HP1BP3 16-mer (dsDNA)
DNA 1: CCTCAGCCAATCGGGG
DNA 2: CCCCGATTGGCTGAGG
B4: the Kd in data set [1] is 489 ± 233 nM.
